Results from patent US20160347862A1 (Janssen / Centocor, published 2016).

Assays:
[1] = target: T1, human thrombin (human, UniProt P00734 314-363; P00734 364-622); assay: estimated from the rate of S2238 hydrolysis by thrombin
[2] = target: T1, human thrombin; assay: cell-based or functional assay
[3] = target: prothrombin (Homo sapiens (Human), UniProt P00734 44-622); assay: pull-down with IgA-binding lectin agarose; supernatant on non-reducing SDS-PAGE
[4] = target: T1, human thrombin; assay: cell-based or functional assay; remark: listed apart in the source
[5] = target: T1, human thrombin; assay: Biacore, antibody as ligand, after storage for one month at 4° C.
[6] = target: T1, human thrombin; assay: Biacore, antibody as ligand, ambient condition; Control (ambient condition), not 4° C. storage or light exposure
[7] = target: T1, human thrombin; assay: ELISA binding to thrombin, four-parameter fit (log(agonist) vs. response -- Variable slope)
[8] = target: T1, human thrombin; assay: Biacore, antibody as ligand, after exposure to light

Kd [1] [nM]	EC50 (read off the curve), Vi/V0 of S2238 cleavage by thrombin [2] [nM]	binding result [3]	thrombin hydrolysis of FVIII (feedback activation of thrombin via Xase complex) [4] [fold]	thrombin hydrolysis of platelet receptor PAR-1 peptide (activation of platelets) [4] [fold]	Kd [5] [nM]	Kd [6] [nM]	EC50 [7] [µg/mL]	Kd [8] [nM]	Binder
~12	~10	no binding	7	15	–	–	–	–	wild-type anti-exosite 1 IgA antibody (antibody, V domains shown, also called anti-thrombin IgA; anti-IIa IgA) VH: QVQLIQSGSAVKKPGASVRVSCKVSGYTLTEAAIHWVRQAPGKGLEWMGGLDPQDGETVYAQQFKGRVTMTEDRSTDTAYMEVNNLRSEDTATYYCTTGDFSEFEPFSMDYFHFWGQGTVVTVAS VL: EIVLTQSPATLSLSPGERATLSCRASQNVSSFLAWYQHKPGQAPRLLIYDASSRATDIPIRFSGSGSGTDFTLTISGLEPEDFAVYYCQQRRSWPPLTFGGGTKVEIKR
–	–	–	–	–	1.74	1.77	0.0126	1.8	synthetic anti-exosite 1 IgG S30A variant antibody (antibody, V domains shown, also called ichorcumab S30A; ichorcumab) VH: QVQLIQSGSAVKKPGASVRVSCKVSGYTLTEAAIHWVRQAPGKGLEWMGGLDPQDGETVYAQQFKGRVTMTEDRSTDTAYMEVNNLRSEDTATYYCTTGDFSEFEPFSMDYFHFWGQGTVVTVAS VL: EIVLTQSPATLSLSPGERATLSCRASQNVASFLAWYQHKPGQAPRLLIYDASSRATDIPIRFSGSGSGTDFTLTISGLEPEDFAVYYCQQRRSWPPLTFGGGTKVEIKR
